Substitutions are numbered along the chain they refer to.
B1: chi 5F3: chimeric anti-MUC1 SEA antibody of WO 2021/186427; variable regions SEQ ID NOs: 42 and 43; parent of the humanized antibodies (antibody, V domains shown)
VH: MRVLILLCLFTAFPGVLSDVQVQESGPDLVKPSQSLSLTCTVTGHSITRGSSWHWIRQFPGNKLEWMGYIHYGGGTSYNPSLKSRISITRDTSKNQFFLQLNSVTTEDTATFFCARYSYDITYRWFFDVWGAGTTVIVSS
VL: MVSTPQFLVFLLFWIPASRGDILLTQSPAILSVSPGERVSFSCRASQNIGTSIHWYQQRKNGSPRLLIKYASESISGIPSRFSGSGSGTDFTLSINSVESEDMADYYCQQNNNWPLTFGAGTKLELK
notes: chimeric anti-MUC1 SEA antibody of WO 2021/186427; parent of the humanized antibodies
B2: SP66: CDR-grafted humanized 5F3; VH SEQ ID NO: 5, VL SEQ ID NO: 6 (antibody, V domains shown)
VH: EIQLVQSGAEVKKPGSSVKVSCKASGHSITRGSSWHWMRQAPGQGLEWIGYIHYGGGTSYNPSLKSRATLTVDTSTNTAYMELSSLRSEDTAFYFCARYSYDITYRWFFDVWGQGTLVTVSS
VL: DIQMTQSPSTLSASVGDRVTITCRASQNIGTSIHWFQQKPGKAPKLLMYRASESISGVPSRFSGSGSGTEFTLTISSLQPDDFATYYCQQNNNWPLTFGQGTKVEVK
B3: HM4 LM2: variant of SP66; VH HM4 SEQ ID NO: 10, VL LM2 SEQ ID NO: 13 (antibody, V domains shown)
VH: B2 VH with A24V, S25T, V72R, A79F
VL: B2 VL with F36Y, M48I, Y49K
B4: HM5 LM3: variant of SP66; VH HM5 SEQ ID NO: 11, VL LM3 SEQ ID NO: 14 (antibody, V domains shown)
VH: B2 VH with A24V, S25T, A68I, L70I, V72R, A79F
VL: B2 VL with F36Y, M48I, Y49K, R50Y
B5: HM3 LM3: variant of SP66; VH HM3 SEQ ID NO: 9, VL LM3 SEQ ID NO: 14 (antibody, V domains shown)
VH: B2 VH with A24V, S25T, V72R
VL: B2 VL with F36Y, M48I, Y49K, R50Y
B6: HM3 LM2: variant of SP66; VH HM3 SEQ ID NO: 9, VL LM2 SEQ ID NO: 13 (antibody, V domains shown)
VH: B2 VH with A24V, S25T, V72R
VL: B2 VL with F36Y, M48I, Y49K
B7: HM2 LM3: variant of SP66; VH HM2 SEQ ID NO: 8, VL LM3 SEQ ID NO: 14 (antibody, V domains shown)
VH: B2 VH with A24V, S25T, A68I, L70I, V72R
VL: B2 VL with F36Y, M48I, Y49K, R50Y
B8: HM4 LM3: variant of SP66; VH HM4 SEQ ID NO: 10, VL LM3 SEQ ID NO: 14 (antibody, V domains shown)
VH: B2 VH with A24V, S25T, V72R, A79F
VL: B2 VL with F36Y, M48I, Y49K, R50Y
B9: HM2 LM2: variant of SP66; VH HM2 SEQ ID NO: 8, VL LM2 SEQ ID NO: 13 (antibody, V domains shown)
VH: B2 VH with A24V, S25T, A68I, L70I, V72R
VL: B2 VL with F36Y, M48I, Y49K
B10: HM5 LM2: variant of SP66; VH HM5 SEQ ID NO: 11, VL LM2 SEQ ID NO: 13 (antibody, V domains shown)
VH: B2 VH with A24V, S25T, A68I, L70I, V72R, A79F
VL: B2 VL with F36Y, M48I, Y49K

Key:
[1] = biological target: T1, human MUC1 expressing DA3-TM cell line (Homo sapiens, UniProt P15941); test: Dose dependent binding by flow cytometry on DA3-TM cell line; conditions: MUC1 positive DA3-TM cell line
T1 construct: expressed in transfected cells; host or cells: DA3-TM (mouse cancer cell line)
Source text: Dose dependent binding of surface MUC1 expression on human cancer cells using flow cytometer: Human cancer cell lines (COLO357, HT29 and SKOV3) or mouse cancer cell line expressing human MUC1 (DA3-TM) were harvested enzymatically using 0.25% Trypsin and 0.2% EDTA in Dulbecco's Phosphate Buffered Saline (D-PBS), washed with excess cell culture media and re-suspended at a cell density of 1-2×10^6/mL in the cell-line specific cell culture media. The anti-MUC1-SEA mAb (chimeric or humanized IgG)/ADC or the reference IgG antibody/ADC were added to cells at a concentration range of 0-50 nM. The cells were maintained at 4° C. for 1 hour and washed with the excess cell culture media. These cells were further stained with goat anti-human IgG, Fcγ, conjugated with Alexa Fluor 647 (Jackson Immuno Research, West Grove, PA, USA) for 1 hour at 4° C. The concentration for goat anti-human IgG, Fcγ was as per the manufacturer's instructions. Cells were further washed with the excess cell culture media and re-suspended in 100 μl of cell culture media. Cell-associated fluorescence was detected and recorded using flow cytometry (Beckman Coulter, Cytoflex). The mean intensity of fluorescence was obtained from FlowJo software and graph was plotted in Graphpad prism of concentration versus mean intensity of fluorescence.

[2] = biological target: T2, recombinant human MUC1-SEA (Homo sapiens, UniProt P15941); test: Binding strength by Surface Plasmon Resonance (SPR); conditions: Table 2
T2 construct: on recombinant human MUC1-SEA on SPR; purchased Acrobiosystems MU1-H52H9
T2 sequence (P15941 1039-1148 limits assumed): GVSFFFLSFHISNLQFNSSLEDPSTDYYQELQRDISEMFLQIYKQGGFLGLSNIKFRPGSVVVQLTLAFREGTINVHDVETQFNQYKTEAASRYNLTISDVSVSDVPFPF
Experimental: Binding strength assessment using Surface Plasmon Resonance (SPR): MUC1 antigen (Acrobiosystems, Cat: MU1-H52H9) was captured on the anti-His immobilized on CM5 chip at 5 μl/min flow rate for 60 s. Post this concentration range of 0-50 nM of antibody or ADC is passed over MUC1 antigen at a flow rate of 30 μl/min flow rate for 120 s, keeping dissociation time of 1800 s at 25°. The dose response generated is evaluated on BIAevaluation software for the calculation of affinity of antibody to antigen as measured by dissociation constant (KD).

HT-29 cells = test: Growth inhibition of human cancer cell lines, HT-29; format: cell-based; conditions: HT-29, no MUC1 expressing
Experimental: (§1) Human cancer cell lines (such as Colo357, HT29, SKOV3, BxPC3 and T47D) were seeded at 5000 cells/well in a 96-well plate flat bottom clear plate and allowed to adhere overnight. Next day, antibody/ADCs were added to these cells at the mentioned concentration or at a mentioned concentration range. Post 5-7 days of treatment, 20 μl of presto blue dye was added to wells and absorbance was recorded at 570 nm (600 nm reference wavelength). Percent survival was calculated against wells containing untreated cells in complete media and IC50 was calculated in Graphpad Prism.

[3] = biological target: T3, human MUC1-expressing SKOV3 cell line (Homo sapiens, UniProt P15941); test: Binding by flow cytometry on SKOV3 cell line
T3 construct: endogenous in cells; host or cells: SKOV3, COLO357, HT29 (human cancer cell lines)
Source text: The CDR residues from mouse anti-MUC1 antibody (m5F3) VH- (SEQ ID NO: 1) and VL- (SEQ ID NO: 2) domains were identified according to the three antibody numbering systems and grafted onto the human framework region sequences VH- (SEQ ID NO: 3) and VL- (SEQ ID NO: 4) domains respectively. CDRs from 5F3 were chemically synthesized and subsequently cloned into mammalian expression vectors. The expression vectors with humanized 5F3 heavy chain and light chain were named as SP66-HC and SP66-LC respectively. The VH domain of SP66 is SEQ ID NO: 5, and the VL domain of SP66 is SEQ ID NO: 6. The antibody expressed with SP66-HC and SP66-LC was named as SP66. SP66 was transiently expressed in CHO cells and purified by Protein-A affinity chromatography and evaluated for its binding to the human MUC1 SEA domain using flow cytometry on the human MUC1-expressing SKOV3 cell line (FIG. 1).
Dose dependent binding of surface MUC1 expression on human cancer cells using flow cytometer: Human cancer cell lines (COLO357, HT29 and SKOV3) or mouse cancer cell line expressing human MUC1 (DA3-TM) were harvested enzymatically using 0.25% Trypsin and 0.2% EDTA in Dulbecco's Phosphate Buffered Saline (D-PBS), washed with excess cell culture media and re-suspended at a cell density of 1-2×10^6/mL in the cell-line specific cell culture media. […]

SKOV-3 cells = test: Growth inhibition of human cancer cell lines, SKOV-3; format: cell-based; conditions: SKOV-3, moderate MUC1 expressing
Experimental: as §1

[4] = test system: COLO-357 pancreatic carcinoma cells; test: Growth inhibition of human cancer cell lines, COLO-357; conditions: COLO-357, high MUC1-SEA expressing

T3 sequence (P15941 24-1255): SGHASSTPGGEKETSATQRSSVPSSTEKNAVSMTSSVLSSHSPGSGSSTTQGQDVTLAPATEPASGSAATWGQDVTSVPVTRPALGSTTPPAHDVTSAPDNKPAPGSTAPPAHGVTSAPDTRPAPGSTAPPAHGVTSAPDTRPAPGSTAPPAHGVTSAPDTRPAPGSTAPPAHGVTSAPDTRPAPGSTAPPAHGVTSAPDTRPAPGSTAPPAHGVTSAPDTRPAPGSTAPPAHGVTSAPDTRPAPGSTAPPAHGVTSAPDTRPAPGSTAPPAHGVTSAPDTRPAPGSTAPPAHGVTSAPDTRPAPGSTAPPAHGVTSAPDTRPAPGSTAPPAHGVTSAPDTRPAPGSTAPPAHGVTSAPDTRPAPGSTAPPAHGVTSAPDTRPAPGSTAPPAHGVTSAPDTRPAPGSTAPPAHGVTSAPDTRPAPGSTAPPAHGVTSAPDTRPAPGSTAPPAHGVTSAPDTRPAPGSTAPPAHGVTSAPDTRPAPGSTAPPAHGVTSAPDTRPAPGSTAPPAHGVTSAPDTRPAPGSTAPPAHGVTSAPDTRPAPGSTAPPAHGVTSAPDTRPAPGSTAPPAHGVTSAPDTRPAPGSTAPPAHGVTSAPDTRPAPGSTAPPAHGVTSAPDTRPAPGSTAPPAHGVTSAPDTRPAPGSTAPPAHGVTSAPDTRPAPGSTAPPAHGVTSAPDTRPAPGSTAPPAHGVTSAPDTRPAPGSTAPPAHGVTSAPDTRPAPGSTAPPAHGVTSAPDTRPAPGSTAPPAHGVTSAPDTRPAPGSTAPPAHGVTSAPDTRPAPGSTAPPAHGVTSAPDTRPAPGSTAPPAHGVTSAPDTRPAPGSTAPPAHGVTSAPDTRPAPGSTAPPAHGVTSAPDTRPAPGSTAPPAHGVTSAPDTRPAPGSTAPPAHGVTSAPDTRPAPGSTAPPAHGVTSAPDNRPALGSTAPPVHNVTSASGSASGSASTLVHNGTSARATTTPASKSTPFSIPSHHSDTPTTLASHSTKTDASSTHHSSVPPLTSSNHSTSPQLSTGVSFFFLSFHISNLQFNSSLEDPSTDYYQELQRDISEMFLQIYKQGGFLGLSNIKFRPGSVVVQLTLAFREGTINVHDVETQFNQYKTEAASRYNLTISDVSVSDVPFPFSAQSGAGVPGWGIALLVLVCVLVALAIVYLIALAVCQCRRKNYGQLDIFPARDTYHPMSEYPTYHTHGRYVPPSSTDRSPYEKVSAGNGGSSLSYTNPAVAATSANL
T1 sequence (P15941 24-1255): as above

Molecule	kd [2]	further results
B1	0.000188 s⁻¹	Kd [1]: 1 ± 0.1 nM; Kd [2]: 0.0427 nM
B2		cytotoxic effect / growth inhibition (in words) (HT-29 cells): No growth inhibition; binding by flow cytometry (in words) [3]: unable to bind; cytotoxic effect / growth inhibition (in words) (SKOV-3 cells): No growth inhibition; cytotoxic effect / growth inhibition (in words) [4]: No growth inhibition
B3	0.000261 s⁻¹	
B4	0.000198 s⁻¹	
B5	0.00347 s⁻¹	
B6	0.000492 s⁻¹	
B7	0.000188 s⁻¹	
B8	0.000238 s⁻¹	
B9	0.000255 s⁻¹	
B10	0.000213 s⁻¹	

From patent US20250041437A1, “HUMANIZED MUC1 ANTIBODY AND ANTIBODY DRUG CONJUGATE” (Sun Pharma Advanced Research Company Limited, priority 2023, published 2025)
